Data set [1] has as its system O=c1ccn([C@@H]2O[C@H](CO[P@@](=O)(O)O[P@@](=O)(O)O[C@H]3O[C@H](CO)[C@@H](O)[C@H](O)[C@H]3O)[C@@H](O)[C@H]2O)c(=O)[nH]1. Put plainly: cells, lysate or membranes. The following applies: labelled compound (UDP-[3H]Glc), co-substrate Und-P in CHAPS, 20 mM MgCl2, pH 7.4, 37 °C.
From the text: (§2) radiometric [3H]Glc-lipid formation, E. coli membrane fraction on SccP
The test system of data set [2] is CC(C)=CCC/C(C)=C/CC/C(C)=C/CC/C(C)=C\CC/C(C)=C\CC/C(C)=C\CC/C(C)=C\CC/C(C)=C\CC/C(C)=C\CC/C(C)=C\CC/C(C)=C\COP(=O)(O)O. Put plainly: cells, lysate or membranes. The following applies: co-substrate UDP-[3H]Glc, Und-P dispersed in CHAPS, 20 mM MgCl2, pH 7.4, 37 °C.
From the text: as §2
Data set [3] deals with O=c1ccn([C@@H]2O[C@H](CO[P@@](=O)(O)O[P@@](=O)(O)O[C@H]3O[C@H](CO)[C@@H](O)[C@H](O)[C@H]3O)[C@@H](O)[C@H]2O)c(=O)[nH]1. The experiment in a line: radiometric [3H]Glc-lipid formation, E. coli membrane fraction. The data set is classed as biochemical, Streptococcus mutans. The note with it: labelled compound (UDP-[3H]Glc), co-substrate Und-P in CHAPS, 20 mM MgCl2, pH 7.4, 37 °C. The text has this:
(§1) radiometric [3H]Glc-lipid formation, E. coli membrane fraction on SccN

Data set [4] deals with CC(C)=CCC/C(C)=C/CC/C(C)=C/CC/C(C)=C\CC/C(C)=C\CC/C(C)=C\CC/C(C)=C\CC/C(C)=C\CC/C(C)=C\CC/C(C)=C\CC/C(C)=C\COP(=O)(O)O. Described as above. The data set is classed as biochemical, Streptococcus mutans. The following applies: co-substrate UDP-[3H]Glc, Und-P dispersed in CHAPS, 20 mM MgCl2, pH 7.4, 37 °C.
From the text: as §1

As for SccP (Streptococcus mutans UA159), in data set [1], the Km turned out to be 2.50 µM and the Vmax came to 0.93 µmol/min/mg. Also, in data set [2], the Km worked out at 2.56 µM and the Vmax was 0.96 µmol/min/mg.

Consider SccN (Streptococcus mutans UA159), for which the Km in data set [3] amounted to 1.61 µM; in data set [4] it was 5.85 µM. Moreover, the Vmax in data set [3] was found to be 3.16 µmol/min/mg; in data set [4], 5.42 µmol/min/mg.

The record behind these values is article PMC11754754, “Structure and mechanism of biosynthesis of Streptococcus mutans cell wall polysaccharide” (Nature Communications, 2025).
